1 substance from PMC12394075 can be followed below.

This assay deals with HA-GSGS-tagged rat mGluR2 with TAG at Ala548 (CRD linker sensor) (rat) (UniProt P31421).

Heterotrimeric Gi1, sequence (P63096 whole entry, looked up, one chain of several): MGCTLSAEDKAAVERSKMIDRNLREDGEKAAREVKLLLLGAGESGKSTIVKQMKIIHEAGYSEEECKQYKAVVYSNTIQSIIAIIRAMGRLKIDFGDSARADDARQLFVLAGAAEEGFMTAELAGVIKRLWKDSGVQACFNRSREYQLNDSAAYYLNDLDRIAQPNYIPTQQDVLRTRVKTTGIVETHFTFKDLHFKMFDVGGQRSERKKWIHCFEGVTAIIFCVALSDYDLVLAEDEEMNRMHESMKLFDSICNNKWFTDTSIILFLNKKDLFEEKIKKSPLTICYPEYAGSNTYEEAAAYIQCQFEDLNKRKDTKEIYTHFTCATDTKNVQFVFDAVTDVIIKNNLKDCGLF

Substance “Heterotrimeric Gi1 (from UniProt P63096 1-354) (complex)” returned a smFRET of the CRD sensor with 10 mM glutamate and 4–5 µM Gi1 heterotrimer: occupancy of the high-FRET state (E ~ 0.85) of 20%.
